The source of these data is patent publication US20050026828A1.

In test [1] the target is human prokineticin receptor 1 (human) (UniProt Q8TCW9). Put plainly: cell-based or functional assay.
The target in test [2] is human prokineticin receptor 2 (human) (UniProt Q8NFJ6). Put plainly: cell-based or functional assay.
Chain of UniProt Q8NFJ6 (Q8NFJ6 whole entry): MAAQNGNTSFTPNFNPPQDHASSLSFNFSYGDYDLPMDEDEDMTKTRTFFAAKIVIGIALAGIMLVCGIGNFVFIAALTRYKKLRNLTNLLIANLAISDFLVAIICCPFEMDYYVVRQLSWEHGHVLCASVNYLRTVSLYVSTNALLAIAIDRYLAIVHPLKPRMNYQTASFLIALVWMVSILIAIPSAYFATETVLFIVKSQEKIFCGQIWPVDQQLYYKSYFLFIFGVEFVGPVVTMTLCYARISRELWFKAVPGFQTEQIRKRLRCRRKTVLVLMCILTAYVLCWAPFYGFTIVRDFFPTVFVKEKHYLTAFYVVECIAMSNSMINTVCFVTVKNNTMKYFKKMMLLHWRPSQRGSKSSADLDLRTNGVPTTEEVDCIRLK

Chain of UniProt Q8TCW9 (Q8TCW9 whole entry I255M/S256T): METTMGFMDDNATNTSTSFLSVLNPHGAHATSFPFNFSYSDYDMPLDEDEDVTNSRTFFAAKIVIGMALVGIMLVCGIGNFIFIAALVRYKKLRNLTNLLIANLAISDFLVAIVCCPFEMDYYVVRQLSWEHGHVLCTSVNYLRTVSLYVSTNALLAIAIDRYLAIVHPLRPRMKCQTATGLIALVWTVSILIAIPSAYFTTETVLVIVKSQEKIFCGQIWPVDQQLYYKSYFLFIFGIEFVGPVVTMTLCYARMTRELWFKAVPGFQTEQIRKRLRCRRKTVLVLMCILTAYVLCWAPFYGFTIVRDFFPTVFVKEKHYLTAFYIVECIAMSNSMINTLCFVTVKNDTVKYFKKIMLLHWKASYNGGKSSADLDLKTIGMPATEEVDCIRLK

B1: MV PK1 (ligand)
chain: MVITGACERDVQCGAGTCCAISLWLRGLRMCTPLGREGEECHPGSHKVPFFRKRKHHTCPCLPNLLCSRFPDGRYRCSMDLKNINF
Turning to B1, in test [1], the Antagonistic Activity of PK mutants (Calcium Mobilization Assay), ligand PK1 is 6 nM and the Antagonistic Activity of PK mutants (Calcium Mobilization Assay), ligand PK2 was 110 nM. In test [2], the Antagonistic Activity of PK mutants (Calcium Mobilization Assay), ligand PK1 stood at 16 nM and the Antagonistic Activity of PK mutants (Calcium Mobilization Assay), ligand PK2 came to 29 nM.

B2: Met PK1 (ligand)
chain: MAVITGACERDVQCGAGTCCAISLWLRGLRMCTPLGREGEECHPGSHKVPFFRKRKHHTCPCLPNLLCSRFPDGRYRCSMDLKNINF
On to B2, for which the Antagonistic Activity of PK mutants (Calcium Mobilization Assay), ligand PK1 in test [1] was found to be 9 nM; in test [2], 15 nM. Besides, the Antagonistic Activity of PK mutants (Calcium Mobilization Assay), ligand PK2 in test [1] stood at 90 nM; in test [2], 30 nM.
